Experimental data reported in US8859496B2, “Pharmaceutical composition using connective-tissue growth factor” (Postech Academy-Industry Foundation, priority 2010, dated 2014).
No end group written: not given here.

Legend:
[1] = molecular target: T1, FPRL1 (Homo sapiens, UniProt P25090); experiment: ERK phosphorylation in FPRL1/RBL cells (immunoblot); type: cell-based; conditions: FPRL1/RBL cells
T1 construct: expressed in transfected cells; host or cells: rat basophil leukemia RBL-2H3 cells, kept under G418
T1 sequence (P25090 1-351): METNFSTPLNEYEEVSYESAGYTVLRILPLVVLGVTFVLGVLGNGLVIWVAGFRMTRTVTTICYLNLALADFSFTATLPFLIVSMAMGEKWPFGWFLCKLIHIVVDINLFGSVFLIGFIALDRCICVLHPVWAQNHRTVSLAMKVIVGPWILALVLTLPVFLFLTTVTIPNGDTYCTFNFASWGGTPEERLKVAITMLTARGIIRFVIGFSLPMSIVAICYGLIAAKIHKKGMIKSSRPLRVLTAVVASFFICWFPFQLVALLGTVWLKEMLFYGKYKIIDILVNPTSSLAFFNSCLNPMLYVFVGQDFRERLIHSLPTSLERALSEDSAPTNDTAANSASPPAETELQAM
Description: Vector/RBL cells, FPR/RBL cells, FPRL1/RBL cells, and HUVECs were cultured to confluence, and serum-starved. The stimulated cells (1×10^5 cells) were washed with PBS twice, dissolved in 1 ml of sample buffer (50 mM Tris-HCl, 100 mM NaCl, 0.1% SDS, 1% Nonidet P-40, 50 mM NaF, 1 mM Na3VO4, 1 μg/ml aprotinin, 1 μg/ml pepstatin, and 1 μg/ml leupeptin), heated at 95° C. for 30 seconds, separated with SDS-PAGE, and then, transferred to a nitrocellulose film. Immunoblot was conducted using anti-phospho-ERK (extracellular signal regulated kinase)1/2 (Thr^202/Tyr^204)(Cell Signaling Technology, Beverly, Mass., USA), anti-ERK1/2 (Cell Signaling Technology, Beverly, Mass., USA), anti-CTGF (Abcam, Cambridge, Mass., USA), anti-Actin (Sigma, St. Louis, Mo., USA), or anti-Flag (Sigma, St. Louis, Mo., USA) antibody, and then, the film was visualized with a chemiluminescence substrate (Amersham Pharmacia).
To confirm this, the inventors obtained conditioned medium (CM) in HUVEC treated with VEGF-A, and FPRL1-overexpressing cells FPRL1/RBL were treated therewith in the concentration of 10 ng/ml or 50 ng/ml for 8 hours. At this time, as positive control, FPRL1 agonistic peptide WKYMVm (Trp-Lys-Tyr-Met-Val-D-Met, SEQ ID NO. 1) was treated with 10 nM.
After the treatment, immunoblot was conducted on cell lysate that was transferred to a nitrocellulose film with anti-phospho ERK (extracellular signal regulated kinase)1/2 and anti-ERK1/2 antibody (Cell Signaling Technology, Beverly, Mass., USA), and then, the film was visualized with a chemiluminescence substrate (Amersham Pharmacia), and the results are shown in FIG. 1.
Meanwhile, the above described vector/RBL, FPR/RBL, or FPRL1/RBL cells were respectively treated with the above conditioned medium or VEGF-A at the concentration of 10 ng/ml for 8 hours, and positive control was treated with 10 nM of agonistic peptide WKYMVm (SEQ ID NO. 1).
As described in the <Experiment method 5>, FPRL1/RBL cells were treated with 40 ug of the HPLC fraction of the conditioned medium for 5 minutes, and the result confirming whether ERK phosphorylation occurred as described in the <Experiment result 1> was shown in FIG. 3.
To confirm whether the purified proteins induce ERK phosphorylation in FPRL1/RBL cells, immunoblot was conducted as described in the <Experiment result 1>, and the results are shown in FIG. 9.
ERK phosphorylation induction of CTGF linker polypeptide was compared to recombinant human CTGF (rhCTGF). Specifically, FPRL1/RBL cells were treated with CTGF linker polypeptide and rhCTGF for 5 minutes at various concentrations, ERK phosphorylation was measured, and the results are shown in FIG. 11. […]

[2] = molecular target: T2, FPRL1 in HUVECs (Homo sapiens, UniProt P25090); experiment: Flow cytometry binding of biotinylated linker polypeptide in HUVECs
T2 construct: endogenous in cells; host or cells: HUVECs
T2 sequence (P25090 1-351): T1 sequence (P25090 1-351)
Description: To evaluate the degree of binding of linker polypeptide corresponding to the link region of human CTGF, linker polypeptide was labeled using a EZ-Link Micro Sulfo-NHS-LC-Biotinylation kit (Pierce Chemical Co., Rockford, Ill., USA) according to the manufacturer's instruction. The linker polypeptide was cultured at room temperature for 1 hour in PBS with 9 mM sulfo-NHS-LC-biotin (Pierce Chemical Co., Rockford, Ill., USA). During biotinylation, vector/RBL cells, FPR/RBL cells, FPRL1/RBL cells, or HUVECs were treated with trypsin, and collected, and then, treated with rabbit serum at room temperature for 30 minutes. After culturing the biotinylated linker polypeptide in the ice for 30 minutes, the cells were shortly washed with ice-cold PBS, cultured with antihuman fluoroscein-5-isothiocyanate (FITC)-conjugated streptavidin (Pierce Chemical Co.), and then, washed with ice-cold PBS, and fixed with 1% formaldehyde solution. And then, they were analyzed using FACS Caliber system (BD Biosciences, San Jose, Calif.) with CellQuest and WinMDI 2.9 software according to previously known method (He, R., Sang, H. & Ye, R. D. Serum amyloid A induces IL-8 secretion through a G protein-coupled receptor, FPRL1/LXA4R. Blood 101, 1572-1581, 2003).
It was examined whether the CTGF linker polypeptide binds to FPRL1 in HUVECs as described in the <Experiment method 7>, and the results are shown in FIG. 13. […]

[3] = tested on: HUVECs; experiment: Intracellular Ca2+ concentration in HUVECs; type: cell-based, human
Description: FPRL1/RBL, vector/RBL or FPR/RBL cells were cultured in a fluo-3-AM working solution containing 0.03% (w/v) plutonic F-127 (Molecular Probes) at 37° C. for 1 hour so that the final concentration of fluo-3-AM became 20 uM/L. After the culturing, fluo-3-AM fluorescence occurred at 488 nm with high-power Ar^+ laser in the cells, and the emission band was measured at 530 nm with photomultiplier. Fluorescence signal was detected using confocal laser scanning system (LSM 510 Meta; Carl Zeiss, Jena, Germany) equipped with Nikon E-600 Eclipse microscope. Fluorescence intensities before adding CTGF (F0) and after adding CTGF (F) were measured. Change in the intracelullar Ca^2+ concentration [Ca^2+]i was indicated by F/F0 ratio. From each cell, 50 to 120 images were scanned.
And, HUVECs were treated with the CTGF linker polypeptide or rhCTGF at various concentrations for 1 hour, it was confirmed whether intracellular Ca^2+ concentration increases by the above method, and the results are shown in FIG. 15.

Substance | ERK phosphorylation compared to rhCTGF ([1]; 10 nM) | ERK phosphorylation compared to rhCTGF ([1]; various concentrations, 5 minutes) | binding of linker polypeptide in HUVECs (flow cytometry shift) ([2]; 10 nM, 30 minutes, compared to vehicle) | intracellular Ca2+ concentration in HUVECs ([3]; various concentrations, 1 hour) | effect of antagonist on ERK phosphorylation induced by CTGF linker polypeptide or rhCTGF ([1]; 10 nM CTGF linker polypeptide or rhCTGF, WRW4 10 uM) | effect of antagonist on linker polypeptide binding in HUVECs ([2]; WRW4 10 uM with 10 nM CTGF linker polypeptide) | effect of antagonist on Ca2+ increase by CTGF linker polypeptide in HUVECs ([3]; WRW4 10 uM)
EWVCDEPKDQTVVGPALAAYRLEDTFGPDPTMIRANCLV (EWVCDEPKDQTVVGPALAAYRLEDTFGPDPTMIRANCLV-NH2; cysteine pairing not given here) [CTGF linker polypeptide] | induces ERK phosphorylation to a similar level to rhCTGF | induces ERK phosphorylation to a similar level to rhCTGF | average value shifts right | increases intracellular Ca^2+ concentration in a concentration-dependent manner | – | – | –
WRWWWW (FPRL1 antagonist) [WRW4] | – | – | – | – | ERK phosphorylation is inhibited | the shift is not observed | that's not the case when the cells are treated with FPRL1 antagonist WRW4
